This is an account of results in EP4269437A1 (Zhejiang Nanomab Technology Center Co. Ltd., dated 2023).

In one assay the target is T1, ICOS (UniProt Q9Y6W8 21-140, limits assumed).
T1 construct: bought
T1 sequence (looked up): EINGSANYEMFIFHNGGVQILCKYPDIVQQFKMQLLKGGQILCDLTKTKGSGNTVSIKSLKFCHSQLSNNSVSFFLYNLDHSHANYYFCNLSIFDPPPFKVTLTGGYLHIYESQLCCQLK
Briefly: ELISA on coated protein, anti-human Fc HRP. A general note: In an ELISA, binding on a coated surface is turned into a signal by an enzyme label.

A further assay has as its target T2, CTLA-4 (UniProt P16410 36-161, limits assumed).
T2 construct: bought
Briefly: ELISA on coated protein, anti-human Fc HRP.

In another assay the target is T3, CD28 (UniProt P10747 19-152).
T3 construct: bought
The experiment in a line: ELISA on coated protein, anti-human Fc HRP.

The target in another assay is T4, murine PD-1 protein (murine, UniProt Q02242 25-167, limits assumed).
T4 construct: bought
T4 sequence (looked up): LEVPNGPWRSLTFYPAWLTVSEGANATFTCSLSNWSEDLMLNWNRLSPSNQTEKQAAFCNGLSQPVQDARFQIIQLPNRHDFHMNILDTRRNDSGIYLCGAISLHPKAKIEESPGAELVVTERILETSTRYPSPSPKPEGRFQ
Briefly: ELISA on coated protein, anti-human Fc HRP.

For a further assay, the target named is T5, PD-1.His (UniProt Q15116 25-170, limits assumed).
T5 construct: not shown: His tag
T5 sequence (Q15116 25-170 limits assumed): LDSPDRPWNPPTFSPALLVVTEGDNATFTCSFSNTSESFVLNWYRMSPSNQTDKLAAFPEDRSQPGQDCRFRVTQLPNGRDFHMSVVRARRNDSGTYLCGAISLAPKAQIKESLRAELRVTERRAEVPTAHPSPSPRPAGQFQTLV
Briefly: SPR, antibody captured on protein A, PD-1.His in flow. In general terms: Surface plasmon resonance follows binding to a sensor surface in real time, without labels.

Assay [1] concerns the target PD-1 on GS-J2/PD1 effector cells (UniProt Q15116 25-288, limits assumed). Briefly: cell-based or functional assay.
The target of another assay is T6, human PD-1.Fc (human, UniProt Q15116 25-170, limits assumed).
T6 construct: also called PD-1; Fc protein; PD-1.hFc; not shown: human IgG Fc fragment
T6 sequence (Q15116 25-170 limits assumed): as above
Briefly: SPR, antibody captured on protein A, PD-1.Fc in flow.

The target in assay [2] is T7, PD-1 (UniProt Q15116 25-170, limits assumed).
T7 construct: also called PD-1 protein
T7 sequence (Q15116 25-170 limits assumed): as above
Briefly: SPR; set-up and antigen form not restated.

In assay [3] the target is T7, PD-1. The experiment in a line: SPR; set-up and antigen form not restated. This is another data set of the same source.
In assay [4] the target is T7, PD-1. The experiment in a line: SPR; set-up and antigen form not restated. This is another data set of the same source.

Where two headings read alike, the source gives them in different places.

T2 sequence (P16410 36-161 limits assumed): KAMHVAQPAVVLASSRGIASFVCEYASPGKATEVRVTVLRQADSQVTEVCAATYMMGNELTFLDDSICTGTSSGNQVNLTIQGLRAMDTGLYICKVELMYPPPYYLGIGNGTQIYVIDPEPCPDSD
PD-1 on GS-J2/PD1 effector cells, sequence (Q15116 25-288 limits assumed): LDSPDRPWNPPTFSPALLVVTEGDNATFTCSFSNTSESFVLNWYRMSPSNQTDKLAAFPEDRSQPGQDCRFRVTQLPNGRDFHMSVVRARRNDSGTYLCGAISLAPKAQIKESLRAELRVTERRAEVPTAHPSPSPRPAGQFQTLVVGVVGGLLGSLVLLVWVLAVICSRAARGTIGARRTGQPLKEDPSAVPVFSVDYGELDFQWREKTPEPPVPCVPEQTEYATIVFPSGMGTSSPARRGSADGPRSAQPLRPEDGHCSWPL

B1: NB182 (Fc fusion)
heavy: QVQLVESGGGLVQAGGSLRLSCAASGDTSFISAAGWYRQAPGKERELVAAITNTGITYYPDSVKGRFTISRDNAKNTVYLQMNNLKPEDTAVYYCNAGAPPPGGLGYDESDYWGQGTQVTVSS
notes: not shown: IgG4 constant region of vector pCDNA3.4-IgG4
On to B1, for which the binding result is recorded as “no binding” in the assay with ICOS, “no binding” with CTLA-4, “no binding” with CD28 and “no binding (tested: 0.1µg)” with murine PD-1 protein. Also, the Kd in the assay with PD-1.His and with human PD-1.Fc was 8670 pM throughout. For the same molecule, the koff in the assay with PD-1.His and in the assay with human PD-1.Fc was 6.4e-05 s⁻¹ throughout. The kon in the assay with PD-1.His and with human PD-1.Fc was 7380 M⁻¹ s⁻¹ throughout. Besides, in [1], the “Reporter Gene Assay EC50 (luciferase)” value is 16300 pM.

B2: NB194-P29 (Fc fusion)
heavy: QLQLVESGGGSAQAGGSLTLSCTASGHSFSIYDMGWFRQAADKERESVAVINFGRGTTYYAESVKGRFTISLDSAKNTVYLQMNTLKPEDTAVYSCGIDRRQYGLGIPPLADHWGQGSQVTVSS
notes: as for B1
Take B2: the “fold increase in affinity compared to NB194” value with PD-1 [2] was 5 fold. In the assay with PD-1 [3], the Kd (commonly the free concentration of one partner at which half of the binding sites on the other are occupied at equilibrium, for simple one-to-one binding) turned out to be 151 pM; the off-rate (koff) – broadly, the rate constant with which the complex falls apart – was 4.37e-05 s⁻¹; the on-rate constant (kon) (in general, a measure of how fast the partners come together) was found to be 290000 M⁻¹ s⁻¹. In the assay with PD-1 [4], this molecule gave a Kd of 118 pM, a koff of 2.86e-05 s⁻¹ and a kon of 243000 M⁻¹ s⁻¹.

B3: NB194-P29-z7 (Fc fusion)
heavy: QVQLVESGGGLVQPGGSLRLSCSASGHSFSIYDMGWFRQAADKERESVAVINFGRGTTYYAESVKGRFTISLDNAKNTVYLQMNSLRAEDTAVYSCGIDRRQYGLGIPPLADHWGQGSQVTVSS
notes: as for B1
In the assay with PD-1 [3], B3 yielded a Kd of 150 pM, a koff of 2.18e-05 s⁻¹ and a kon of 145000 M⁻¹ s⁻¹.

B4: NB194-P29-z6 (Fc fusion)
heavy: QVQLVESGGGLVQPGGSLRLSCSASGHSFSIYDMGWFRQAAGKERESVAVINFGRGTTYYAESVKGRFTISRDNAKNTVYLQMNSLRAEDTAVYSCGIDRRQYGLGIPPLADHWGQGSQVTVSS
notes: as for B1
With B4, in the assay with PD-1 [3], the Kd came to 268 pM, the koff was 3.02e-05 s⁻¹ and the kon came out at 113000 M⁻¹ s⁻¹.

B5: NB194-P29-z10 (Fc fusion)
heavy: ELQLVESGGGLVQPGGSLRLSCAASGHSFSIYDMGWFRQAADKERESVAVINFGRGTTYYAESVKGRFTISRDNAKNTVYLQMNSLRAEDTAVYSCGIDRRQYGLGIPPLADHWGQGSQVTVSS
notes: as for B1
Regarding B5, in the assay with PD-1 [3], the Kd came out at 179 pM, the koff came out at 1.74e-05 s⁻¹ and the kon amounted to 96800 M⁻¹ s⁻¹.

B6: NB194-P29-z8 (Fc fusion)
heavy: QVQLVESGGGLVQPGGSLRLSCSASGHSFSIYDMGWFRQAPGKERESVAVINFGRGTTYYAESVKGRFTISRDNAKNTVYLQMNSLRAEDTAVYSCGIDRRQYGLGIPPLADHWGQGSQVTVSS
notes: as for B1
In the assay with PD-1 [3], B6 returned a Kd of 235 pM, a dissociation rate constant (koff) of 2.54e-05 s⁻¹ and a kon of 108000 M⁻¹ s⁻¹.

B7: NB194-P29-z9 (Fc fusion)
heavy: QVQLVESGGGLVQPGGSLRLSCSASGFTFSIYDMGWFRQAADKERESVAVINFGRGTTYYAESVKGRFTISRDNAKNTVYLQMNSLRAEDTAVYSCGIDRRQYGLGIPPLADHWGQGSQVTVSS
notes: as for B1
With B7, in the assay with PD-1 [3], the Kd came to 406 pM, the dissociation rate constant (koff) turned out to be 5.03e-05 s⁻¹ and the kon was 124000 M⁻¹ s⁻¹.

B8: NB194 (Fc fusion)
heavy: QVQLVETGGGLVRAGGSLRLSCTASGRPFSIYDMGWFRQAPDKERESVAVINLSRGDTYYADSVKGRFTISLDSAKNTVYLQMNSLKPEDTAVYSCGVDRRQYGLGIPPLADHWGQGTQVTVSS
notes: as for B1
As to B8, the binding result is reported as “no binding” with ICOS, “no binding” in the assay with CTLA-4, “no binding” in the assay with CD28 and “no binding (tested: 0.1µg)” with murine PD-1 protein. In addition, the Kd with PD-1.His came out at 494 pM; in the assay with PD-1 [4], 531 pM. The figures for the koff with PD-1.His and with PD-1 [4] were 0.000105 s⁻¹ and 7.36e-05 s⁻¹, respectively. Moreover, the kon in the assay with PD-1.His was determined as 212000 M⁻¹ s⁻¹; in the assay with PD-1 [4], 139000 M⁻¹ s⁻¹. Also, the “Reporter Gene Assay EC50 (luciferase)” value in assay [1] is 7000 pM.
